From publication PMC8342987
Where two headings read alike, the source gives them in different places.

Row | Substance | other (ubiquitination at K375) | other (ubiquitination at K517) | other (phosphorylation at Y525) | other (phosphorylation at Y526)
1 | SYK: SYK (K375R, K517R) | changes | changes |  | 
2 | SYK: SYK (Y525F, Y526F) |  |  | no change | no change
